± gives the uncertainty stated by the source.
Test: amyloid nucleation score (Sup35N fusion, yeast selection) (log enrichment); library NNK2; higher = more nucleation; inactive = no reads after selection
In short: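 Using DiMSum, nucleation scores were taken as the log enrichment of output over input reads, centred on the mode score of non-aggregating sequences. The input and output reads came from Illumina sequencing of plasmid inserts, with sequences under 100 input reads excluded. The yeast were psi-negative, expressed Sup35N fused to peptides of 20 random codons, were induced with 100 μM copper sulfate for 24 hours, and were grown 7 days at 30°C on medium lacking adenine and uracil.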

Substance	amyloid nucleation score
LYRFSSLLWLSVSSSCDIV	inactive
LYSCCLQCSSTNSIYEDLMC	inactive
LYSESIVLFAYGFNGDGGLY	-0.67 ± 0.29
LYTLVFIKNFISMYLREILT	-1.8 ± 0.48
LYTMNLHYFLLFEESVS	-0.835 ± 0.28
MADTPSNFKYYLPKLFKG	inactive
MAGLTSWCGPHHTVWLTWNG	0.939 ± 0.3
MAHWSSSNSTVVLGCLAWML	6.17 ± 0.081
MAKSCGRSCTCSRSKVSVGG	0.52 ± 0.57
MASTIWIMLVYDLNARKMHI	4.87 ± 0.073
MATDDIN	-0.359 ± 0.79
MCFSIRPPGVMRVMHLTLVW	0.135 ± 0.79
MCHVKFIT	3.18 ± 0.067
MCYCLYNVGPCGDGH	1.23 ± 0.28
MCYHDSVNNERINMGVLLHV	0.067 ± 0.56
MDCILNYFFVLLLGHGNLLM	-0.826 ± 0.54
MDGIGTFNLSENR	inactive
MDIFCYTGRPTSAKRAS	-1.05 ± 0.64
MDKCETEMYIMSAHVFRRLW	6.229 ± 0.048
MDLVCVAKSDVQACTYSAPV	1.1 ± 0.39
MDLYCD	inactive
MDTVMRLYVCVCCRSFLRIG	1.62 ± 0.35
MEGITRFSPPKNSEYIVLAG	-0.613 ± 0.44
MFAFMNFRRTIVVYEVWGSY	inactive
MFAVLSLDRGYHKAR	-0.205 ± 0.55

Substance	amyloid nucleation score
MFAVLTGSIFKWKWWTIGFR	-0.265 ± 0.28
MFCGDSCSTVPCCVCICFLY	5.02 ± 0.058
MFCRTRALSRTGPTGQLLRV	3.56 ± 0.13
MFDFCPIMTLF	-0.771 ± 1.1
MFGNTGLTSYYALTGTRWLY	-0.487 ± 0.79
MFHCSSKACLPVVDVGVVVC	0.96 ± 0.29
MFHLRSNVMPTGLVRTPMLL	1.54 ± 0.44
MFIMFIAVSFVGRMYGGHRH	-0.44 ± 0.26
MFVCYSRYIASEREPAACPI	inactive
MFVHLGGTWMQR	5.135 ± 0.046
MFWKTWGVNCQATNRMEIRL	2.99 ± 0.055
MFWRITGAI	0.402 ± 0.34
MGARSIRDRSSVGK	-0.464 ± 1.1
MGLNYLKQQAARYDEGGPS	1.5 ± 0.42
MGLTEEVIKWQGHVGWTWAG	1.55 ± 0.29
MGMAHFDSQPLGYILGASMC	-0.727 ± 0.79
MGMLFMFVITKKSLVQDSLY	2.64 ± 0.19
MGPDMYVCKVWLGAVAYEMG	1.95 ± 0.4
MGSAS	0.682 ± 0.34
MGVLWMFFSF	0.03 ± 0.4
MGVSNIDIVSRILNPGAAAS	1.36 ± 0.41
MHHIFYVGNLSW	inactive
MHHQSSAFNQGHASPYLSWK	0.741 ± 0.39
MHKAFWPNLALFVMNGYGGV	0.304 ± 0.42
MHLCADPAGFWDWN	-0.446 ± 1

Substance	amyloid nucleation score
MHQSQVMSLSDPAAGKSFWV	-0.56 ± 0.79
MIDLTLIFLFLVYSD	-0.827 ± 0.62
MIHYRWTHYNTRIGGYRYWE	3.54 ± 0.05
MIMHNVANDWTVFYFLCRVV	-0.723 ± 0.55
MIVMLESLRRTTSQP	1.69 ± 0.21
MIWGVT	1.01 ± 0.4
MKRIRLGNQVRCEAANCRGR	1.1 ± 0.24
MLARFSSHVPGTDVNPIGRQ	0.317 ± 0.5
MLELSATMSVHVQRLNASGH	9.009 ± 0.068
MLLIRGHILIPGADLTIIPE	-0.692 ± 0.56
MLMSNFCF	-0.077 ± 0.74
MLSRNNCNALWYSIFS	-1.5 ± 1
MLSTTEVCVGPDRD	3.89 ± 0.088
MLVCRWNACSVVLSVSGLAR	0.718 ± 0.21
MLVNRFGGVA	-0.402 ± 0.38
MLVVLMFSLSDSI	1.67 ± 0.1
MMFNSLCSYWTTDYFATPDL	6.778 ± 0.062
MMGRTTWMDIKIYWENQCAE	-0.176 ± 1.1
MMNTMLHGIVVMNFSWVASW	4.26 ± 0.053
MMSEVLKDVSCHFIPLGGQV	-0.694 ± 0.48
MNFCGNRCPFSLYIPWTACV	-0.664 ± 1.1
MNGVLFMCFIH	3.86 ± 0.085
MNIYEVSKYENGY	3 ± 0.071
MNKNYFSGLPGGSVCYSVEY	-0.732 ± 0.38
MNLAVGWSHSPDQDLYYPML	-0.339 ± 0.56

Substance	amyloid nucleation score
MPGQFHFVMNFRINRNYIRS	5.92 ± 0.067
MPPGCRMIFALIVVVIQFNF	0.04 ± 0.76
MPQSSRFCTNSFGNRHRRSW	-0.343 ± 1.1
MPTIRNWVCW	0.639 ± 0.47
MQISKQTFPHNWVVYRSDYG	-0.776 ± 1.1
MQKRRDSKYEYLVFGCDVCM	-1.13 ± 1.1
MQYCLGFDLNLRNYICHPGR	7.303 ± 0.063
MRGAYLRFRSMCAGAAGKCD	inactive
MRGGLGV	0.492 ± 0.49
MRLLILDPYAREQ	inactive
MRTKGIRQADVFCESYRFNT	-0.029 ± 0.65
MSGVSAVLRDLFKYVELIIR	inactive
MSPLH	-0.181 ± 0.39
MSPNLIMMHHCH	0.094 ± 0.41
MSSRTHLARRHPVMDVCCSR	6.639 ± 0.036
MSWIGCYYYFNAQQHNSG	9.318 ± 0.052
MSYAYKVRSCCVMFMMFRSW	-0.336 ± 0.54
MSYCNT	1.77 ± 0.11
MTCCF	-0.877 ± 1.1
MTFNVFRNQALRPNCCKPNG	3.09 ± 0.18
MTLMKDCDMNISHSARAKAS	0.255 ± 0.18
MTRNGDLFS	0.657 ± 0.4
MTYYRAYFAYLWVVRLWL	0.029 ± 0.32
MVCVELFWFARLSLPGA	0.246 ± 1.1
MVDKNNAKINHSR	inactive

Substance	amyloid nucleation score
MVHHGGCAWMSSACTCNVHC	0.313 ± 0.27
MVIGNLGLLLEGLRVEYLNH	inactive
MVKSHLMTKFCD	-0.394 ± 0.34
MVLNIDCFCDFYLALSCMSI	5.58 ± 0.079
MVLRKLTYILPTRLLGQRFL	inactive
MVLVMCPLS	0.015 ± 0.25
MVRVYSVCDKDHQMYNHFFR	0.67 ± 0.44
MVSGRPTVYKTSSLQTASAN	-0.14 ± 0.65
MVYELRRFRCLFITVSGVDS	inactive
MWINHDPGWRCYYLYFPFL	3.59 ± 0.074
MYCETLRRSILMVNMNPRNP	-0.114 ± 0.31
MYEGGSTLW	-0.441 ± 0.45
MYKVPTCPMFMVDNYYKLLN	inactive
MYLAGHLDCGGY	3.27 ± 0.055
MYLPMVDVIEVSYSVNLERG	-0.311 ± 0.32
MYLTCFWVGQDGKGRKDGGV	5.62 ± 0.078
MYRPINFITCSVRMFVVIVC	inactive
MYSISVNMKNSFRNL	0.566 ± 0.66
MYVRVDFVFSNADRTWNPLK	3.76 ± 0.08
NADLMGIKSVKGS	-0.352 ± 1.1
NAFGTSFCEIMRR	1.22 ± 0.33
NAKCNSTGKTCQFGCQYP	1.51 ± 0.39
NARFFNSFNSFM	3 ± 0.076
NASTRSGNYQFARHGLGYRR	1.44 ± 0.17
NAWDVTKSYQHVHSCSIMLV	inactive

Substance	amyloid nucleation score
NCASWLYGSCACVGLLDLFE	-0.626 ± 0.41
NCGRTNGLCPGYVCVSRLAW	1.09 ± 0.21
NCLYICVCGLCMFQKLRC	-0.246 ± 0.76
NCPPFHRMYLTSIIGSLSDD	-0.306 ± 0.49
NCVWNWRHWFTVVNSF	1.95 ± 0.089
NCWVVSQYTVVN	-0.77 ± 0.79
NCYMSVLILVRLLGSHLKQS	-0.249 ± 1.1
NDGYFVFDALFFHR	-2.34 ± 0.75
NDHSVHINYLIIGAIHNTVN	8.405 ± 0.065
NDPGYLTTYI	-0.418 ± 0.27
NDRSSDWCCIPSKLRWSRSG	4.1 ± 0.057
NDSFPRDNFVESWQACEILM	-0.78 ± 0.44
NDWCRGENITALWDGYGSGL	0.597 ± 0.46
NEFIEVALSLYRVNCQRNFI	-1.5 ± 0.53
NEIARILEVRIGVEGYGGIF	-0.722 ± 0.3
NELLNTWRLLSCPWRIWSLR	0.67 ± 0.26
NETCGYLNKNWLL	0.04 ± 0.45
NETLSTCCLYHFKG	4.04 ± 0.046
NEVRYLGTVLACQQRLHTWM	1.06 ± 0.29
NEYGLLYVFIPSSISPLADI	-1.5 ± 1.1
NFDGSCKA	-0.853 ± 1.1
NFHGDAYLESVRWIHIRNKR	-0.735 ± 0.48
NFHGSASNCDAIVYANFTMH	4.61 ± 0.086
NFKNATIAFIGNMTMIVPRG	8.291 ± 0.038
NFKTI	inactive

Substance	amyloid nucleation score
NFLDMEWTNLLSVMCVDFWS	4.55 ± 0.062
NFTSFAYFELEDALWSWRRL	1.16 ± 0.35
NFVRRSKSDKPCCYKTHSST	-0.747 ± 0.41
NFVSISMGNIYMSQLGRWTA	8.33 ± 0.051
NFWMVPLIA	-0.541 ± 0.79
NFYKEFGGMIAYLDKILREE	-1.13 ± 0.55
NGAYNACNNTGYRTHAY	-0.818 ± 0.78
NGDVTVMITF	5.463 ± 0.031
NGEASVGDFNVCLR	-0.478 ± 0.64
NGGTMLMRLDRS	-0.216 ± 0.63
NGPVQIASGGRRVPLLWEVL	0.098 ± 0.79
NGTLRAFVIKKVRIIDSRQV	4.09 ± 0.076
NHRKVLMVVVLAVHNMGCCI	3.75 ± 0.15
NIFFNL	-0.13 ± 0.36
NIFYRLNGFFQCPRSGLKGC	inactive
NIIACMYKLEDSGRQFSMLE	5.214 ± 0.046
NINLA	inactive
NIRLRFCFRQMEWHNRFRDC	3.93 ± 0.069
NISDFVKLVSYWVSVRCDLR	-0.305 ± 1.1

Reference: the supplement of paper PMC12042874
